Laboratory results as given in US20160200782A1 (MOERAE MATRIX, published 2016).

T1: DYRK2(h) (human, UniProt Q92630 1-601, limits assumed)
T1 sequence (looked up): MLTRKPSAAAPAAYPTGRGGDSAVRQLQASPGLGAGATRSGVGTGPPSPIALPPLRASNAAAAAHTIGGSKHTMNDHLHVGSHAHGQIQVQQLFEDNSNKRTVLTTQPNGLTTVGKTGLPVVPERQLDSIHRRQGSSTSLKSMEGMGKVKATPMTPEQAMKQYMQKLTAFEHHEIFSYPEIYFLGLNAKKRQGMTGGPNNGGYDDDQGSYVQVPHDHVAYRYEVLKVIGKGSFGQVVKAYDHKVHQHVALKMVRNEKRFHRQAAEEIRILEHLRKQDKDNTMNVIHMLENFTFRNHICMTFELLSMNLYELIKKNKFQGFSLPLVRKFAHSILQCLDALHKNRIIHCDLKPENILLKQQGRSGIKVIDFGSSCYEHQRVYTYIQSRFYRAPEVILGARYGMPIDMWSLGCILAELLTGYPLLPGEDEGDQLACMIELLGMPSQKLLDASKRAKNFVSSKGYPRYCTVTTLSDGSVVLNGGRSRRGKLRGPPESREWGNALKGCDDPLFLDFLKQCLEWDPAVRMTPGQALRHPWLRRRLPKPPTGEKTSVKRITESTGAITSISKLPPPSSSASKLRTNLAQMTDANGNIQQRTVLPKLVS

T2: EphA3(h) (human, UniProt P29320 566-983, limits assumed)
T2 sequence (looked up): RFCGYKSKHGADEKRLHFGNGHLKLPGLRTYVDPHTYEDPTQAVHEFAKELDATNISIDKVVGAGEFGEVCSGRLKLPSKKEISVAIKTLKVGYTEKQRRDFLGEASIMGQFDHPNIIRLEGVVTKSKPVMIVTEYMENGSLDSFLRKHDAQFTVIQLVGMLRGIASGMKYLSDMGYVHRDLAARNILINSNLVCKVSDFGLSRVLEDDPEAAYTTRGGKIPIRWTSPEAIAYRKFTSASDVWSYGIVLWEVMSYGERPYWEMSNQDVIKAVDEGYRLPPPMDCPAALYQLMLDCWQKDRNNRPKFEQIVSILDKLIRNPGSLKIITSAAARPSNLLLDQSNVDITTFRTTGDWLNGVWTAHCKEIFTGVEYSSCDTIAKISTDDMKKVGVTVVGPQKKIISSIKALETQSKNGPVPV

T3: Tec(h)activated (human, UniProt P42680 1-631, limits assumed)
T3 sequence (looked up): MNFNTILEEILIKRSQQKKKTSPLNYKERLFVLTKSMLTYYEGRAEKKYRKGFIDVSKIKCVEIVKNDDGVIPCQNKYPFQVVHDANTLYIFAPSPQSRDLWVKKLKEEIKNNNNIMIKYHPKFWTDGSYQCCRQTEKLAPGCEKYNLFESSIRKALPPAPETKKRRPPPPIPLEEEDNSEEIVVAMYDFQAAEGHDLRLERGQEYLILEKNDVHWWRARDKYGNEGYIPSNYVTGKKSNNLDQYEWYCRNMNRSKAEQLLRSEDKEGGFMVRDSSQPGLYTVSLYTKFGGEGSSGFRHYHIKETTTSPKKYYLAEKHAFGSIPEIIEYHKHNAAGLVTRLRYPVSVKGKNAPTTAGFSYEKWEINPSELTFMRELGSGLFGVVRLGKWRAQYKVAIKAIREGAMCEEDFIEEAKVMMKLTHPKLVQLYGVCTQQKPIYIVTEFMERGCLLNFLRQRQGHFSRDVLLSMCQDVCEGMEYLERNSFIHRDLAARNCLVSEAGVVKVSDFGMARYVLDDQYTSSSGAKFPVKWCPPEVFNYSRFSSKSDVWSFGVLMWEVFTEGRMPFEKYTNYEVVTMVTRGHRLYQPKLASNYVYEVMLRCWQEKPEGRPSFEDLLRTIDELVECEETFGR

T4: GRK7(h) (human, UniProt Q8WTQ7 1-553, limits assumed)
T4 sequence (looked up): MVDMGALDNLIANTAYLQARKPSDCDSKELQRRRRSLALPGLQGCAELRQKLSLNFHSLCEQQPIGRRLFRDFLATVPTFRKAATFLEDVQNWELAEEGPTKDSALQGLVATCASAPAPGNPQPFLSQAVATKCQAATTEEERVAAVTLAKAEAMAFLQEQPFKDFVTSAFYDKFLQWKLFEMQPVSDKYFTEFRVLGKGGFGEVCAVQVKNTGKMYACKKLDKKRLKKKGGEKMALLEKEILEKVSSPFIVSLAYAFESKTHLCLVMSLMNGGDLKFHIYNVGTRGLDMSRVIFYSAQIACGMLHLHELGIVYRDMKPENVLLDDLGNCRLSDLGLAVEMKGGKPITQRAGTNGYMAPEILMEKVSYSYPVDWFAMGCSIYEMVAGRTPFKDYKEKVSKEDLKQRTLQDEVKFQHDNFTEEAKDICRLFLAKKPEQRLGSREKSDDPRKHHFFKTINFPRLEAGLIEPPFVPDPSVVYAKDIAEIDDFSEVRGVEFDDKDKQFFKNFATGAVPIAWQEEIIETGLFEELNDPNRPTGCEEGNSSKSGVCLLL


Tests used:
Experiment in all cases: cell-based or functional assay
DYRK2(h) = target: T1, DYRK2(h)
IGF-1R(h), activated = IGF-1R(h), activated (human, UniProt P08069 959-1367, limits assumed)
Sequence of IGF-1R(h), activated (P08069 959-1367 limits assumed): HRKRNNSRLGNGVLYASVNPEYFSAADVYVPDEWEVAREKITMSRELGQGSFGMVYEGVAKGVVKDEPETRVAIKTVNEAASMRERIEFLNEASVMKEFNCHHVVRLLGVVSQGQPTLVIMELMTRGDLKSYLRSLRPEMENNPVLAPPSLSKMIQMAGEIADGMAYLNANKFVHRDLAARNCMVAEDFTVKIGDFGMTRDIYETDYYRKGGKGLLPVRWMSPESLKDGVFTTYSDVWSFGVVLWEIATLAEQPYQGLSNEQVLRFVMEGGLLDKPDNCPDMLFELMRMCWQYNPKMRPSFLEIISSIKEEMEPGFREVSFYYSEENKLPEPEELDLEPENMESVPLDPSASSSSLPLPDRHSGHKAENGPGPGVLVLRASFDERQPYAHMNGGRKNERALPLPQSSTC

Lyn(h) = Lyn(h) (human, UniProt P07948 1-512, limits assumed)
Sequence of Lyn(h) (P07948 whole entry): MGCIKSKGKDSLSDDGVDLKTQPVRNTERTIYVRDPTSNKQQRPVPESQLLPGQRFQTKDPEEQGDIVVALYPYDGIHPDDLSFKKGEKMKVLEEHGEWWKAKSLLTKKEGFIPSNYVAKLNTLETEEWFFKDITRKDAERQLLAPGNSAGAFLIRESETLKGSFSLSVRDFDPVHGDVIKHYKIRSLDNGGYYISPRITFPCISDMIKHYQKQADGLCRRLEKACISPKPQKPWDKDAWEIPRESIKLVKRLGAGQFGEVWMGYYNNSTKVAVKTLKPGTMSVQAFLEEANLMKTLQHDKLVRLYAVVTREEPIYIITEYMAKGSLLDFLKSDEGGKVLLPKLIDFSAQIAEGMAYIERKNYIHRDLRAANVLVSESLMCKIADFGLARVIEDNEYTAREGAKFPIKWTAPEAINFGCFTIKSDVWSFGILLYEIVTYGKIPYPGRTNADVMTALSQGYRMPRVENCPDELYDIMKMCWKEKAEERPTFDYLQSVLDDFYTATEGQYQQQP

EphA3(h) = target: T2, EphA3(h)
Syk(h) = Syk(h) (human, UniProt P43405 1-635, limits assumed)
mTOR(h) = mTOR(h) (human, UniProt P42345 1362-2549)
Sequence of mTOR(h) (P42345 1362-2549 limits assumed): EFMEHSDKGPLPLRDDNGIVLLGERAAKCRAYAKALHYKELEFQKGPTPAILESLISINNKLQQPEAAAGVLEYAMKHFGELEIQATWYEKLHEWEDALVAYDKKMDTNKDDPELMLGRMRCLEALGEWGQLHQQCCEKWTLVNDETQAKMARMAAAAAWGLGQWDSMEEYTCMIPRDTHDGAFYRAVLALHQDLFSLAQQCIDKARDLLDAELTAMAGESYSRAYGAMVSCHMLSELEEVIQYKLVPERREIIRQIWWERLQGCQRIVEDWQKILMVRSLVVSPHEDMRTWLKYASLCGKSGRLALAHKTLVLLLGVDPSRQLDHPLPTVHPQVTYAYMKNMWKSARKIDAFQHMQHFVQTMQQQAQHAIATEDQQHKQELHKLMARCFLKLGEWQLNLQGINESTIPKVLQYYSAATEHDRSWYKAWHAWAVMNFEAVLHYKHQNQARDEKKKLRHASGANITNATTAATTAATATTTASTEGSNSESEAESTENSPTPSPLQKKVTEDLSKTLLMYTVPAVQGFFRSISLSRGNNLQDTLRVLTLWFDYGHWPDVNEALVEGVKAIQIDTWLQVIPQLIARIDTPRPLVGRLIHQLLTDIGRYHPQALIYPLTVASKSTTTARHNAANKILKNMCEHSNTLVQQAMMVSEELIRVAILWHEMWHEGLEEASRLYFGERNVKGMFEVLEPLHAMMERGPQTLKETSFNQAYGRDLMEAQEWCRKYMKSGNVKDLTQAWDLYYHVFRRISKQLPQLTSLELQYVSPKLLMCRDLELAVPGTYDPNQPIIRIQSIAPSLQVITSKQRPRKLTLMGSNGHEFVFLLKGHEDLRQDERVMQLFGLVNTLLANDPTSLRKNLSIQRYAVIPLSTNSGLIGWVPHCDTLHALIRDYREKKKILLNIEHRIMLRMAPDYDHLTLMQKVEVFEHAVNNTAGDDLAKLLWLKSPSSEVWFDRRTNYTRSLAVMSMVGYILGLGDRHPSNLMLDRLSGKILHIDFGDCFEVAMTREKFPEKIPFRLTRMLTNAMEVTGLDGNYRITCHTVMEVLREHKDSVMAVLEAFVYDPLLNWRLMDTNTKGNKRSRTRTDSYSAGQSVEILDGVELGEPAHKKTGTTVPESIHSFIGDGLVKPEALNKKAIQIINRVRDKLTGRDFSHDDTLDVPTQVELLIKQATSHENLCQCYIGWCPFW

Tec(h)activated = target: T3, Tec(h)activated
GRK7(h) = target: T4, GRK7(h)
FGFR4(h) = FGFR4(h) (human, UniProt P22455 460-802, limits assumed)
Sequence of FGFR4(h) (P22455 460-802 limits assumed): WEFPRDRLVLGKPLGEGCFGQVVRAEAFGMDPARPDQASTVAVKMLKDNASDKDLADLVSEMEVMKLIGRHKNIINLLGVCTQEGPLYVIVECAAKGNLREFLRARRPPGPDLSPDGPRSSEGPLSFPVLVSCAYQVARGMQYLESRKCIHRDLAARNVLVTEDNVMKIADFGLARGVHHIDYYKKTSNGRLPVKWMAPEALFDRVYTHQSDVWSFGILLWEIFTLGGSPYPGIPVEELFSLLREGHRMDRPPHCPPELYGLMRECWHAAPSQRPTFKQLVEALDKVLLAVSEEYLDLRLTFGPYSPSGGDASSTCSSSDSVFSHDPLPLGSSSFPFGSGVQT

Pim-2(h) = Pim-2(h) (human, UniProt Q9P1W9 1-311)
Sequence of Pim-2(h) (Q9P1W9 whole entry): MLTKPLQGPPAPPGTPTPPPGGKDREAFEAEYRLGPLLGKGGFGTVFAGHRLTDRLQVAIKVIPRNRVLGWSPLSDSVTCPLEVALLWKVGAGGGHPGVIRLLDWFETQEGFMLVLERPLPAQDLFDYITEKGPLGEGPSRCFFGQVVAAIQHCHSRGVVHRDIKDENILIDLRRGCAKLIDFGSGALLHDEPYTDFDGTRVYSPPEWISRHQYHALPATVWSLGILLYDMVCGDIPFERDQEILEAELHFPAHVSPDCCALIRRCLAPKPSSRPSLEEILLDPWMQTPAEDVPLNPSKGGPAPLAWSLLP
Also: test concentration or dose not given here.

% activity (DYRK2(h)) [%]	% activity (IGF-1R(h), activated) [%]	% activity (Lyn(h)) [%]	% activity (EphA3(h)) [%]	% activity (Syk(h)) [%]	% activity (mTOR(h)) [%]	% activity (Tec(h)activated) [%]	% activity (GRK7(h)) [%]	% activity (FGFR4(h)) [%]	% activity (Pim-2(h)) [%]	Binder
155	80	69	6	24	91	56	122	28	76	FAKLAARLYRKALARQLGVAA [MMI-0300]
195	77	3	12	9	93	29	100	19	92	KAFAKLAARLYRKALARQLGVAA [MMI-0400]
